These results are taken from patent publication US20230257453A1 (PROVIVA THERAPEUTICS HONG KONG, published 2023).

For this test, the target named is T1, denatured human collagen type III (human, UniProt P02461 154-1221, limits assumed).
T1 construct: Bought human collagen III (ab7535, Abcam), denatured at 99 C for 15 minutes and then kept on ice for 5 minutes; also called denatured human collagen III
T1 sequence: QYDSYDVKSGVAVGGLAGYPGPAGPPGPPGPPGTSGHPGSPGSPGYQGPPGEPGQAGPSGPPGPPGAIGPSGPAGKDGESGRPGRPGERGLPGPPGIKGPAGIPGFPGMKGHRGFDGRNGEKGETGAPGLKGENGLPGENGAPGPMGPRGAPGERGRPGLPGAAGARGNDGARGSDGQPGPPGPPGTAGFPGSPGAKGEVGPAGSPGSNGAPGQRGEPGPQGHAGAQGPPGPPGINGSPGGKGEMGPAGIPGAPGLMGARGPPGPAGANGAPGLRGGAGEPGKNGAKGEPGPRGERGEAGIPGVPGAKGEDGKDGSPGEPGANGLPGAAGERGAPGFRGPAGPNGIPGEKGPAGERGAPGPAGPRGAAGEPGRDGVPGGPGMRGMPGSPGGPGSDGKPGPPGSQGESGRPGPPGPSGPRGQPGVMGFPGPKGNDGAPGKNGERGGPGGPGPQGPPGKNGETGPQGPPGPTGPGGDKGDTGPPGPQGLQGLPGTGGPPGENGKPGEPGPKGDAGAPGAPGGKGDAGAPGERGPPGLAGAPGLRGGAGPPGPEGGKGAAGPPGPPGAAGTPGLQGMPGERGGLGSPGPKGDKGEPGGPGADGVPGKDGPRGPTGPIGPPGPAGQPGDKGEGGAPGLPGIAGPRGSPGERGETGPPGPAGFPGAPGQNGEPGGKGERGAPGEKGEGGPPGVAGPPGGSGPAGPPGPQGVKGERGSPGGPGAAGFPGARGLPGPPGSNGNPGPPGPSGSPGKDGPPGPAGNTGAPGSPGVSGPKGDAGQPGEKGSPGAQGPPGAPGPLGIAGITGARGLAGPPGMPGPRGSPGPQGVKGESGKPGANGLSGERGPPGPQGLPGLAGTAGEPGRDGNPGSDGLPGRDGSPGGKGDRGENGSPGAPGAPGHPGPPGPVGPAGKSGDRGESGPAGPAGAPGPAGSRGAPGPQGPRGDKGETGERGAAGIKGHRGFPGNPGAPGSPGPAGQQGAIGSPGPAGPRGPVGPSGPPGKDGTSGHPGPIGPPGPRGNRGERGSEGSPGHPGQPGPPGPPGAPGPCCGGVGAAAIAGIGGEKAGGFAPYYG
Briefly: ELISA, denatured collagen coated on plate, anti-human IgG peroxidase detection. As to the method: ELISA analysis. The binding activity and specificity of purified antibodies were determined by ELISA. Human collagens I (ab7533, Abcam), III (ab7535, Abcam), IV (ab7536, Abcam), an V (ab7537, Abcam), and mouse collagens I (NBP2-62423, NOVUS) and IV (3410-010-02, R&D) were used in ELISA analysis. “Denatured” collagen samples were prepared by incubation of collagens samples at 99° C. for 15 minutes followed by incubation on ice for 5 minutes Microtiter plates were coated with native or denatured collagen protein overnight at 4° C. The next day, plates were washed with PBS and blocked with 3% non-fat dry milk in PBS or 1% BSA. Serially diluted antibodies were added for binding to the coated antigen. Bound antibodies were detected with peroxidase-conjugated anti-human IgG secondary antibody (Jackson ImmunoResearch).
A general note: An ELISA detects its analyte on a solid surface through an enzyme-linked reagent.

B1: P27152798 (antibody, human IgG1, kappa, L234A L235A, V domains shown)
VH: QVTLKESGPALVKPTQTLTLTCTFSGFSLSTPGMGVWWIRQPPGKALEWLADIWWDDNKYTNPSLKSRLTISKDTSKNQVVLTMTNMDPVDTATYYCARRANYGNPYYAQDYWGQGTTVTVSS
VL: DIVMTQTPLSLPVTPGEPASISCRSSQSIVHSNANTYLEWYLQKPGQSPQLLIYKVSNRFSGVPDRFSGSGSGTDFTLKISRVEAEDVGVYYCFQGSHVPWTFGQGTKVEIKR
notes: also called VH chain D3 / VL chain B7A
For the molecule B1, the binding result is given as “binds”.

B2: P27122713 (antibody, human IgG1, kappa, L234A L235A, V domains shown)
VH: QVTLKESGPALVKPTQTLTLTCTFSGFSLSTSGMGVGWIRQPPGKALEWLADIWWDDNKYANPSLKSRLTISKDTSKNQVVLTMTNMDPVDTATYYCARRANYGNPYYAQDYWGQGTTVTVSS
VL: DIVMTQTPLSLPVTPGEPASISCRSSQSIVHSNGNTYLEWYLQKPGQSPQLLIYKVSNRFSGVPDRFSGSGSGTDFTLKISRVEAEDVGVYYCFQGSHVPWTFGQGTKVEIKR
notes: produced by transient transfection in Expi293 cells and purified on MabSelect SuRe; also called VH chain B7 / VL chain B7
On to B2, for which the binding result is “binds”.

B3: P27152716 (antibody, human IgG1, kappa, L234A L235A, V domains shown)
VH: QVTLKESGPALVKPTQTLTLTCTFSGFSLSTPGMGVWWIRQPPGKALEWLADIWWDDNKYTNPSLKSRLTISKDTSKNQVVLTMTNMDPVDTATYYCARRANYGNPYYAQDYWGQGTTVTVSS
VL: DIVMTQTPLSLPVTPGEPASISCRSSQSIVSSWGNTYLEWYLQKPGQSPQLLIYKVSNRFSGVPDRFSGSGSGTDFTLKISRVEAEDVGVYYCFQGSHVPWTFGQGTKVEIKR
notes: produced by transient transfection in Expi293 cells and purified on MabSelect SuRe; also called VH chain D3 / VL chain D3
As to B3, the binding result is reported as “binds”.
